Non-standard residues stand in square brackets, D forms with d. No end group written: not given here. pS = N[C@@H](COP(=O)(O)O)C(=O)O
Biological target: T1, Phosphopeptide TF1-Pser258 CKEN(pS)PLNVS (human)
T1 construct: Synthetic phosphopeptide
T1 peptide: CKEN[pS]PLNVS
Assay: peptide ELISA, optical density (FIG. 7)

B1: hybrid IgG2b anti-TF2-Pser253 monoclonal antibody MAb 680 (antibody, V domains shown)
VH: DVQLQESGPGLVKPSQSLSLTCTVTGYSITSDYAWNWIRQFPGNKLEWMGYISYSGSTSYNPSLKSRISITRDTSKNQFFLQLNSVTTEDTATYYCARIRGYLAMDYWGQGTSVTVSS
VL: DIVMTQAAFSNPVTLGTSASISCRSSKSLLHSNGITYLYWYLQKPGQSPQLLIYQMSNLASGVPDRFSSSGSGTDFTLRISRVEAEDVGVYYCAQNLELPPTFGGGTKLEIKR
notes: The Fab portion of IgM clone 4A6-4B5-1E2 was fused onto murine IgG2b light and heavy chains and made in HEK cells; also called M680; hybrid IgG anti-TF2-pser253 M680
B1: no binding.

From patent US20190004052A1 (published 2019)
